The text below walks through data of PMC3779351 (Journal of Molecular Biology, 2013).

Some targets named below: GST-Cul5^NTD Leu52Ala (mouse, UniProt Q9D5V5 1-384, Leu52Ala | Val341Arg | Leu345Asp); GST-Cul5^NTD (wild type) (mouse, UniProt Q9D5V5 1-384, Val341Arg | Leu345Asp); GST-Cul5^NTD Gln113Ala (mouse, UniProt Q9D5V5 1-384, Gln113Ala | Val341Arg | Leu345Asp); GST-Cul5^NTD Phe41Ala (mouse, UniProt Q9D5V5 1-384, Phe41Ala | Val341Arg | Leu345Asp); GST-Cul5^NTD His48Ala (mouse, UniProt Q9D5V5 1-384, His48Ala | Val341Arg | Leu345Asp).

Test in all cases: SPR
On the technique in general: SPR reads the build-up and loss of mass on a sensor chip optically.

Chain of GST-Cul5^NTD (wild type) (Q9D5V5 1-384 V341R/L345D): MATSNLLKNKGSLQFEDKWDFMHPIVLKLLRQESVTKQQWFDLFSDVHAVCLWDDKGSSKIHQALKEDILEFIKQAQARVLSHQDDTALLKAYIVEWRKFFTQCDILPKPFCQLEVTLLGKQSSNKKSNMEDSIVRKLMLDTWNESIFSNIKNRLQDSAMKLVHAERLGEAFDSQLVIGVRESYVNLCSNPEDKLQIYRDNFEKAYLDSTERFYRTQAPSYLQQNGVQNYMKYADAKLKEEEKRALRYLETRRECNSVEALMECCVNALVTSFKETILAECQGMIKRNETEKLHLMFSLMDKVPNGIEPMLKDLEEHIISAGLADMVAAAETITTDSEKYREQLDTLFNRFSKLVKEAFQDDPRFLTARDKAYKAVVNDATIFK
Chain of GST-Cul5^NTD Phe41Ala (Q9D5V5 1-384 F41A/V341R/L345D): as the sequence (Q9D5V5 1-384 V341R/L345D) above, with F41A counted along it
Chain of GST-Cul5^NTD Gln113Ala (Q9D5V5 1-384 Q113A/V341R/L345D): as the sequence (Q9D5V5 1-384 V341R/L345D) above, with Q113A counted along it
Chain of GST-Cul5^NTD His48Ala (Q9D5V5 1-384 H48A/V341R/L345D): as the sequence (Q9D5V5 1-384 V341R/L345D) above, with H48A counted along it
Chain of GST-Cul5^NTD Leu52Ala (Q9D5V5 1-384 L52A/V341R/L345D): as the sequence (Q9D5V5 1-384 V341R/L345D) above, with L52A counted along it

B1: ASB9–Elongin B/C ternary complex (wild type) (complex)
chain 1: SDWSPMHEAAIHGHQLSLRNLISQGWAVNIITADHVSPLHEACLGGHLSCVKILLKHGAQVNGVTADWHTPLFNACVSGSWDCVNLLLQHGASVQPESDLASPIHEAARRGHVECVNSLIAYGGNIDHKISHLGTPLYLACENQQRACVKKLLESGADVNQGKGQDSPLHAVARTASEELACLLMDFGADTQAKNAEGKRPVELVPPESPLAQLFLEREGPPSLMQLCRLRIRKCFGIQQHHKITKLVLPEDLKQFLLHL
chain 2: […]
chain 3: […]
With B1, the binding result in the experiment with GST-Cul5^NTD Leu52Ala, with GST-Cul5^NTD (wild type) and with GST-Cul5^NTD Gln113Ala was “binds” throughout. For the same molecule, the “fold loss in affinity against wild-type Cul5” value with GST-Cul5^NTD Phe41Ala and in the experiment with GST-Cul5^NTD His48Ala was 50 fold in each case.
